Assay results from US20250333501A1 (University of California, published 2025).
Changes are numbered by the printed parent chain.

T1: human CLDN6 fused to GFP, expressed on engineered HEK293T cells (HEK293T-CLDN6-mGFP) (human, UniProt P56747 1-220)
T1 construct: It calls residues 1-21 a signal peptide; also called Claudin-6; HEK293T-CLDN6-mGFP Artificial CLDN6+; not shown: mGFP tag
T1 sequence: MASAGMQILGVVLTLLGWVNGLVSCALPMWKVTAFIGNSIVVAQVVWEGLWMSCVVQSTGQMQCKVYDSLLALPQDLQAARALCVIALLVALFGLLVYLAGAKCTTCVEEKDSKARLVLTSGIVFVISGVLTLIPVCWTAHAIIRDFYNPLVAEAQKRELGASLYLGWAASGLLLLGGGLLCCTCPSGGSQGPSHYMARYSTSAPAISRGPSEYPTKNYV

T2: CLDN6 endogenously expressed by human cancer cell lines (ARK2, OVCA429) (human, UniProt P56747 1-220)
T2 construct: Untagged endogenous protein; also called Endogenous CLDN6+
T2 sequence: T1 sequence

B1: AB19 (antibody, V domains shown)
VH: EVQLQQSGPELVKPGGSMKISCKASGYSFTGYTMNWVKRSHGKNLEWIGLINPYNGVTTYNQNFKGKATLAVDKSSSTAYMELLGLTSEDSAVYYCTRDPLYYGYRDSTMDYWGQGTSVTVSS
VL: NIMMTQSPSSLAVSAGEKVTMSCKSSQSVLFSSNQKNYLAWYQQKPGQSPRLLIYWASTRESGVPDRFTGSGSGTDFTLTISNVQAEDLAVYYCHQYLSSRTFGAGTKLELK
notes: Labelled with Alexa Fluor 647 NHS ester for FACS
B2: AB12 (antibody, V domains shown)
VH: EVKLMESGGDLVKPGGSLKLSCAASGFTFSSYAMSWVRQTPEKRLEWVASIRSGGTTYYPDSVKGRFTISRDNARNILYLRMSSLRSEDTAIYYCAKVGGNPYPMDYWGQGTSVTVSS
VL: DIQMIQSPSSMFASLGDRVSLSCRASQDIGGNLDWYQQKPGGTIKLLIYSTSNLNSGVPSRFSGSGSGSDYSLTITSLESEDFADYYCLQRNAYPLTFGAGTKLELK
notes: as for B1
B3: AB3 (antibody, V domains shown)
VH: EVKLEESGGGLVQPGGSMKLSCVASGFTFSNYWMNWVRQSPEKGLEWVAQIRLKSDNYATHYAESVKGRFTISRDDSKRSVYLQMNNLRAEDTGTYYCNDGPPSGCWGQGTTLIVSS
VL: DIQMTQSPASLSASVGETVTITCRISENIYSYLAWYQQKQGKSPQLLVYNAKILVEGVPSRFSGSGSGTQFSLKINSLQPEDFGNYYCQHHYTVPWTFGGGTKLEIK
notes: Labelled with Alexa Fluor 647 for FACS and with Texas Red-X in the internalization assay
B4: AB2 (antibody, V domains shown)
VH: B3 VH with N31D
VL: B3 VL
notes: as for B1
B5: AB6 (antibody, V domains shown)
VH: DVQLQESGPGLVKSSQSLSLTCSVTGYSITSGYYWKWIRQFPGNKLEWMGYISYDGGINYNPSLKNRISITRDTSKNQFFLKLNSVTTEDTAKYYCARFGKGAMDYWGQGTSVTVSS
VL: AIVMFQSPSSLVVSAGEKVTMSCKSSQSLLNSRTRKNYLAWYQQKPGQSPKLLIYWASTRESGVPDRFTGSGSGTDFTLTISSVQAEDLAVYYCKQSYYLYTFGGGTKLEIK
notes: as for B1
B6: AB13 (antibody, V domains shown)
VH: QVQLQQSGAELVRPGTSVKVSCKASGYAFSNYLIEWVKQRPGQGLEWIGVINPGSGGTNYNEKFKGKATMTADKSSSTAYMHLSNLTSEDSVVYFCARSYFGRSYPYTMDYWGQGTSVTVSS
VL: EIVLTQSPTTMAASPGEKITITCSASSSISSNYLHWYQQKPGFSPKLLIYRTSNLASGVPARFSGSGSGTSYSLTIGTMEAEDVATYYCQQGSSIPLTFGAGTKLELK
notes: as for B1
B7: AB11 (antibody, V domains shown)
VH: DVQLVESGGGLVQPRGSRKLSCAASGFTFSSFGMHWVRQAPEKGLEWVAYISSDSRTIYYADTVKGRFTISRDNPTNTLFLQMTSLRSEDTAMYYCARDYGRTYEAYWGQGTLVTVSA
VL: DIVLTQSPASLAVSLGQRATISCRASKSVSTSGYSYIHWYQQKPGQPPKLLIYLASNLESGVPARFSGSGSGTDFTLNIHPVEEEDAATYYCQHSRELPLTFGAGTKLELK
notes: as for B1
B8: AB9 (antibody, V domains shown)
VH: EVQLQQSGPELVKPGASVKMSCKASGYRFTDYNMHWVKQSHGKSLEWIGYINPNNGGTNYNQNFKGKATLTVNKSSSTAYMELRSLTSEDSAAYYCARDYLYFFDCWGQGTTLTVSS
VL: DIQMTQSPASQSASLGESVTITCLASQTIGTWLAWYQQKPGKSPQLLIYAAASLADGVPSRFSGSGSGTRFSFKISSLQAEDFVSYYCQQLYSIPRTFGGGTKLEIK
notes: as for B1
B9: AB14 (antibody, V domains shown)
VH: QVQLQQSGPELVRPGVSVKISCKGSGYTFTDYAMHWVKQSHAKSLEWIGVISTYSGNTNYNQKFQDKATMTVDKSSSTAYMALARLTSDDSAIYYCARRGDYSLYAMDYWGQGTSVTVSS
VL: DIVLTQSPASLAVSLGQRATISCKASQSVDYDGDNYVNWYQQKVGQPPKLLISAASNLESGIPARFSGSGSGTDFTLNIHPVEEEDAATYYCQQSNEDPFTFGSGTKLEIK
notes: as for B1
B10: AB4 (antibody, V domains shown)
VH: QVQLQQSGAELARPGASVKMSCKASGYTFTSYTMHWIKQRPGQGQEWIGYINPSSTYTHYIKKFKDKATLTADKSSSTAYMQLRSLTSEDSAVYYCSRGELGGFAYWGQGTLVTVSA
VL: DVVMTQTPLSLPVSLGDQASISCRSSQSLVHSDGNTYLNWYLQKPGQSPKLLIYKVSNRFSGVPDRFSGSGSGTDFTLKIRRVEAEDLGVYFCSQSTHVPYTFGGGTKLEIK
notes: as for B3
B11: AB8 (antibody, V domains shown)
VH: QVQLQQSGAELARPGASVKMSCKASGYTFTTYTMHWLKQRPGQGLEWIGYINPRSGYSNYNQKFKDKATLTADKSSNTAYMQLNTLTSEDSKVYYCSRGELGGFAYWGQGTLVTVSA
VL: B10 VL with N39Y, R81S
notes: as for B1
B12: AB10 (antibody, V domains shown)
VH: QIQLVQSGPALKKPGETVKISCKASGYTFTDYSMHWIKQAPGKGLKWMGWISTETGEPTYADGFKGRFDFSLETSADTAYLSINNLTNEDTATYFCTRGLWSSFAYWGQGTLVTVSA
VL: B10 VL with S25A, D33N, N39H, Y41F, G73R, R81S, S96I
notes: as for B1
B13: AB1 (antibody, V domains shown)
VH: QVQLQQSAAELARPGASVKMSCKASGYTFTTYTMHWVKQRPGQGLEWIGFINPSSGYTDYNQKFKDRTTLTADKSSSTVYMQLSSLTSEDSAVYYCANGDYYVAYWGQGTLVTVSA
VL: QIVLTQSPAIMSASLGERVTMTCTASSSVSSTYFHWYQQKPGSSPKLWIYSTSNLASGVPRRFSGSASGTSYSLTISSMEAEDAATYYCHQYHRSPLTFGAGTKLELK
notes: as for B1
B14: AB7 (antibody, V domains shown)
VH: EVQLQQSGPELVKPGASMKISCKASGYSFTGYTMNWVKQSHGKNLEWIGLINPYNGGTNYNQKFKGKATLTVDKSSSTAYMELLSLTSEDSAVYYCARGVYDYDGFTYWGQGTLVTVSA
VL: B13 VL with E17D, T32S, F34L, R61A, A67G, L97P, A101S, L107I
notes: as for B1
B15: AB17 (antibody, V domains shown)
VH: QVQLQQSGAELAKPGASVKMSCKASGYTFTGYWMHWVKQRPGQGLEWLGYINPSTGYTESNQKFKDKATLTADKSSTTAYMQLRSLTPEDSAVYYCAREGITTVLVDYWGQGTTLTVSS
VL: B13 VL with T32S, F34L, R61A, A67G, L97P
notes: as for B1
B16: AB5 (antibody, V domains shown)
VH: EVQLQQSGPELVKPGASVKMSCKASGYIFTHYIMHWVKQKPGQGLEWIGCINPYNDGTKYNEKFKGKATLTSDKSSSTAYMELSSLTSEDSAVYYCARYYGYPYYSMDYWGQGTSVTVSS
VL: DVLMTQTPLSLPVSLGDQPSISCRSSQSIVHSNGNTYLDWYLQKPGQSPKLLIYKVSNRFSGVPDRFSGSGSGTDFTLKISRVEAEDLGVYYCFQGSHVPFTFGSGTRLEIK
notes: as for B1

How the values were obtained:
[1] = biological target: T1, human CLDN6 fused to GFP, expressed on …; test: FACS, AF647-labelled mAb, HEK293T-CLDN6-mGFP cells
Description: (§1) Antibodies were purified and cell surface binding of the antibodies to CLDN6 and the antibody IC₅₀ were determined by FACS in which CLDN6 antibodies were directly conjugated with Alexa Fluor® 647 NHS Ester (Succinimidyl Ester), Cat #A20106 (ThermoFisher Scientific) following the manufacturer's protocol. CLDN6 antibodies were tested from 0.32 nM to 1000 nM (serial dilution 1:5, 6 points) in a 50 μl volume with 150,000 cells system.
(§2) CLDN6-expressing cells were used in FACS assays to determine the CLDN6 antibody's ability to bind to CLDN6 on the surface of cells and to cross-react with other CLDN family members. HEK293 T cells engineered to express human CLDN6 fused to GFP, mouse CLDN6 fused to GFP, CLDN9-GFP, CLDN4-GFP, or CLDN3-GFP, or GFP alone (without CLDN6) were used as artificial models of CLDN6 expression. ARK2, OVCA429, LS513 and MCF7 cells were used as endogenous models of CLDN6 expression, as well as models for CLDN3/4 expression.
(§3) For each type of cell tested and for each mAb, cells were detached from the surface of the culture flasks by EDTA (instead of trypsin) in order to protect the cell surface proteins. The detached cells were then incubated with Alexa Fluor®-labeled CLDN6 mAbs for 30 min in the dark on ice at a pre-determined concentration. The CLDN6 mAbs were directly labeled with Alexa Fluor® 647 NHS Ester (Succinimidyl Ester). After washing, the cells were read by a BD Accuri™ Flow Cytometer C6 to detect antibody-antigen protein binding in channel FL4H. Each antibody was tested at varied concentrations to establish a dose-fluorescence curve. The EC50/IC50 of the antibodies (the concentration of the antibody at which half the max value were calculated based on the values of FL4H (gated in viable singlet cells) using the Very Simple IC50 Tool kit available online which allows biological dose-response data to be plotted and fitted to curve types to give the EC50/IC50. The max value was the lowest concentration of the antibody at which fluorescence maxes out. The antibodies were also screened for their ability to cross-react with other CLDN proteins such as CLDN9, CLDN3, and CLDN4. These values were used to determine each antibody's relative affinity among the set of antibodies tested. Cross-reactivity data were obtained using a similar methodology, but with cells having a different expression profile for CLDN6, CLDN3, CLDN4 and CLDN9.

[2] = biological target: T2, CLDN6 endogenously expressed by human …; test: FACS, AF647-labelled mAb, OVCA429 cells
Description: as §1, §2, §3

[3] = biological target: T2, CLDN6 endogenously expressed by human …; test: FACS, AF647-labelled mAb, ARK2 cells
Description: as §1, §2, §3

Binder	EC50 [1] [nM]	EC50 [2] [nM]	EC50 [3] [nM]
B1	≥ 5000		
B2	≥ 5000	2290	1300
B3	604	1100	1650
B4	182	912	1360
B5	1430	394	765
B6	≥ 5000	2290	1150
B7	1700	835	363
B8	2670	1160	1140
B9	≥ 5000	1660	1300
B10	17	168	48
B11	1920	1090	1140
B12	2760	2470	2140
B13	109	84	105
B14	579	531	353
B15	2650		
B16	10	5	8
